*1 amine or outer side, *2 acyl side, *3 side chain or, on linkers, in order; H or OH if unused. Bridges are numbered along the chain shown (N, C = ends). Primed or numbered codes have the meaning given here. Side-chain parts run from the residue outwards. [ ]: non-standard residue; d: D form. Ygp″ = O-(PEG8-amino)-tyrosine (O-(8x polyethylene glycol-amino)-tyrosine); Yn3″ = O-(PEG9-azido)-tyrosine (O-(9x polyethylene glycol-azido)-tyrosine); Ygp = O-(8x polyethylene glycol-amino)-tyrosine; Yn3 = O-(9x polyethylene glycol-azido)-tyrosine; PABC = O=C(OCc1ccc(N[*:1])cc1)[*:2]; cleavable moiety = not defined here; Ygp(3) = O-(PEG8-amino)-tyrosine; Yn3(3) = O-(PEG9-azido)-tyrosine; Cit = NC(=O)NCCC[C@H](N)C(=O)O; hSer = N[C@@H](CCO)C(=O)O; Nle = CCCC[C@H](N)C(=O)O; Dab = NCC[C@H](N)C(=O)O
B1: CMP-165, MMP2 cleaved (ligand)
chain: APTSSSTKKTQLQLEHLLLDLQKILNGINNYKNPKLTR[Nle]L[hSer][Yn3]KF[Ygp][Nle]PKKATELKHLQCLEEELKPLEEVL[hSer]LAQSKNFHLRPRDLISNINVIVLELKGSETTF[hSer]CEYADETATIVEFLNRWITFSQSIISTLT
modifications: disulfide 58-105 (inferred); not fully specified (residue 23, N-terminus); also: MMP2 cleaved, ring opened, cut site not given here, peptide remnants on N-terminus (via glutaryl) and on Lys23 side chain
B2: CMP-166, MMP2 cleaved (ligand)
chain: APTSSSTKKTQLQLEHLLLDLQKILNGINNYKNPKLTRXLXYKFYXPKKATELKHLQCLEEELKPLEEVLXLAQSKNFHLRPRDLISNINVIVLELKGSETTFXCEYADETATIVEFLNRWITFSQSIISTLT
modifications: not fully specified; as CMP-166 but cleavable peptide cut by MMP2 (macrocycle opened); cut site not given
B3: CMP-167, MMP2 cleaved (ligand)
chain: B2 chain
modifications: not fully specified; as CMP-167 but cleavable peptide cut by MMP2 (macrocycle opened); cut site not given
B4: CMP-168, MMP2 cleaved (ligand)
chain: APTSSSTKKTQLQLEHLLLDLQEILNGINNYKNPKLTR[Nle]L[hSer][Yn3]KF[Ygp][Nle]PKKATELKHLQCLEEELKPLEEVL[hSer]LAQSKNFHLRPRDLISNINVIVLELKGSETTF[hSer]CEYADETATIVEFLNRWITFSQSIISTLT
modifications: disulfide 58-105 (inferred); not fully specified (residues 9, 23); also: cleaved by MMP2, bridge opened, remnants on Lys9 and Glu23 not defined
B5: CMP-136 (ligand)
chain: APTSSSTKKTQLQLEHLLLDLQ[Nle]ILNGIENYKNPKLTR[Nle]L[hSer][Yn3″]KF[Ygp″][Nle]PKKATELKHLQCLEEELKPLEEVL[hSer]LAQSKNFHLRPRDLISNINVIVLELKGSETTF[hSer]CEYADETATIVEFLNRWITFSQSIISTLT
modifications: disulfide 58-105; bridge N-29; not fully specified (residue 29, bridges); also: cleavable peptide sequence not given here
B6: CMP-138 (ligand)
chain: APTSSSTKKTQLQLEHLLLDLQ[Nle]ILNGIENYKNPKLTR[Nle]L[hSer][Yn3]KF[Ygp][Nle]PKKATELKHLQCLEEELKPLEEVL[hSer]LAQSKNFHLRPRDLISNINVIVLELKGSETTF[hSer]CEYADETATIVEFLNRWITFSQSIISTLT
modifications: disulfide 58-105; bridge N-29; not fully specified (residue 29, bridges)
B7: CMP-319 (ligand)
chain: RGRRVANLVGAPTSSSTKKTQLQLEHLLLDLQEILNGINNYKNPKLTR[Nle]L[hSer][Yn3(3)]KF[Ygp(3)][Nle]PKKATELKHLQCLEEELKPLEEVL[hSer]LAQSKNFHLRPRDLISNINVIVLELKGSETTF[hSer]CEYADETATIVEFLNRWITFSQSIISTLT
modifications: lactam N-33; not fully specified (bridges)
B8: CMP-305 (ligand)
chain: APTSSSTKKTQLQLEHLLLDLQKILNGINNYKNPKLTR[Nle]L[hSer][Yn3]KF[Ygp][Nle]PKKATELKHLQCLEEELKPLEEVL[hSer]LAQSKNFHLRPRDLISNINVIVLELKGSETTF[hSer]CEYADETATIVEFLNRWITFSQSIISTLT
modifications: linker 15-23 via cleavable moiety; ends not checked; also: cleavable peptide of the bridge not defined
B9: CMP-305, MMP2 cleaved (ligand)
chain: APTSSSTKKTQLQLEHLLLDLQKILNGINNYKNPKLTR[Nle]L[hSer][Yn3]KF[Ygp][Nle]PKKATELKHLQCLEEELKPLEEVL[hSer]LAQSKNFHLRPRDLISNINVIVLELKGSETTF[hSer]CEYADETATIVEFLNRWITFSQSIISTLT
modifications: ends and bridges not checked; also: cleavable moiety between Glu15 and Lys23 side chains cut by MMP2, macrocycle opened, cut site not given here
B10: CMP-130 (ligand)
chain: APTSSSTKKTQLQLE[Dab]LLLDLQ[Nle]ILNGINNYKNPKLTR[Nle]L[hSer][Yn3(3)]KF[Ygp(3)][Nle]PKKATELKHLQCLEEELKPLEEVL[hSer]LAQSKNFHLRPRDLISNINVIVLELKGSETTF[hSer]CEYADETATIVEFLNRWITFSQSIISTLT
B11: CMP-131 (ligand)
chain: APTSSSTKKTQLQLEK([PABC-Cit-Val-Glu-Ac])LLLDLQ[Nle]ILNGINNYKNPKLTR[Nle]L[hSer][Yn3″]KF[Ygp″][Nle]PKKATELKHLQCLEEELKPLEEVL[hSer]LAQSKNFHLRPRDLISNINVIVLELKGSETTF[hSer]CEYADETATIVEFLNRWITFSQSIISTLT
modifications: not fully specified; ends and bridges not checked

These binders were tested against T1, recombinant human IL-2 receptor beta containing a His-tag and Avi-Tag (R&D Systems #AVI10459) (human, UniProt P14784 27-239) (assay: BLI (Octet), receptor on SAX2 sensor, MMP2-treated IL-2 as analyte).
T1 construct: bought protein, held on the Octet SAX2 sensor; also called CD122; IL-2Rβ
T1 sequence (looked up): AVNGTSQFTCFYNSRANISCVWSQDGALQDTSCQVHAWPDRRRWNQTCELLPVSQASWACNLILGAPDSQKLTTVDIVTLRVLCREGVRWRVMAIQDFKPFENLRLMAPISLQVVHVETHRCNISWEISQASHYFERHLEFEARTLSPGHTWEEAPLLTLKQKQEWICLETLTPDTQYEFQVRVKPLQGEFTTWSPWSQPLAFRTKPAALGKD
Protocol: (§1) Bilayer interferometry (BLI) assays were used to measure the binding constants between activatable IL-2 polypeptides (and activated versions thereof) to IL-2 receptor subunits or receptor complexes. BLI assays were conducted on an Octet® R8 instrument. Assay plates were 96 well, polypropylene, F-bottom (chimney well), black microplates (Greiner Bio-one, Cat. No: 655209). The biosensors were Octet® SAX2 (Sartorius, Cat. No: 18-5136). The assay buffer was 1× Kinetic Buffer (Sartorius, Cat. no: 18-5136) or Phosphate Buffered Saline (PBS) that contained 0.02% (v: v) Tween 20 (Polysorbate 20) and 0.1% (w/v) bovine serum albumin (BSA). The sensor was regenerated between measurements in 10 mM glycine pH 2.7 buffer.
(§2) Sensor attached receptors were either recombinant human IL-2 receptor beta containing a His-tag and Avi-Tag™ (R&D Systems™ #AVI10459) or an Avi-Tag™ Fc with human IL-2R beta and IL-2R gamma attached (Acrobiosystems Cat. no: ACRB-ILG-H82F3-25UG). Receptors were reconstituted from lyophilized powder to 500 μg/ml in PBS. Analytes were diluted in Kinetic buffer to 300 nM, then serially diluted to lower concentrations.

| Binder | Kd [µM] | koff [s⁻¹] | kon [M⁻¹ s⁻¹] |
| --- | --- | --- | --- |
| B1 | 1.11 | 0.237 | 213000 |
| B2 | 0.794 | 0.225 | 283000 |
| B3 | 0.658 | 0.227 | 345000 |
| B4 | 1370 | 1.08 | 789 |

These binders were tested against T2, Avi-Tag Fc with human IL-2R beta and IL-2R gamma attached (Acrobiosystems ACRB-ILG-H82F3-25UG) (human, UniProt P14784 27-239; P31785 23-262) in the same assay as above.
T2 construct: bought heterodimer; also called CD122 CD132; CD122/CD132 complex
T2 sequence (looked up) 1: T1 sequence (looked up)
T2 sequence (looked up) 2: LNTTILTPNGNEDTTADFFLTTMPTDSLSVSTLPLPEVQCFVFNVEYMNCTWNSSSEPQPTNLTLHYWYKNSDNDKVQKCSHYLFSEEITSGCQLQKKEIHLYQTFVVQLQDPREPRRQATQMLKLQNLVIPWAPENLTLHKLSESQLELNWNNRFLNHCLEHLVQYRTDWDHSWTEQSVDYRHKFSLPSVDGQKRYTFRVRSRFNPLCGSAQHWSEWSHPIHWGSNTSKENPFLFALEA
Protocol: as §1, §2

| Binder | Kd [µM] | koff [s⁻¹] | kon [M⁻¹ s⁻¹] |
| --- | --- | --- | --- |
| B1 | 0.00187 | 0.00114 | 608000 |
| B2 | 0.00121 | 0.000684 | 567000 |
| B3 | 0.00155 | 0.000923 | 594000 |
| B4 | 0.00227 | 0.00164 | 602000 |

What follows are binders tested against T1, recombinant human IL-2 receptor beta … (assay: BLI (Octet), receptor on SAX2 sensor, IL-2 as analyte).
Protocol: as §1, §2

| Binder | Kd [µM] | koff [s⁻¹] | kon [M⁻¹ s⁻¹] |
| --- | --- | --- | --- |
| B5 | 0.00844 | 0.00767 | 909000 |
| B6 | 0.0117 | 0.0105 | 898000 |
| B7 | 0.0595 | 0.0122 | 206000 |

The binders below were run against T2, Avi-Tag Fc with human IL-2R beta and … in the same assay as above.
Protocol: as §1, §2

| Binder | Kd [µM] | koff [s⁻¹] | kon [M⁻¹ s⁻¹] |
| --- | --- | --- | --- |
| B5 | 0.0126 | 0.00498 | 396000 |
| B6 | 0.0123 | 0.00284 | 232000 |
| B7 | 0.00919 | 0.000786 | 85500 |

What follows are binders tested against T3, IL-2 receptor βγ complex on pan T cells (human, UniProt P14784 27-551; P31785 23-369) (assay: cell-based or functional assay).
T3 sequence (looked up) 1: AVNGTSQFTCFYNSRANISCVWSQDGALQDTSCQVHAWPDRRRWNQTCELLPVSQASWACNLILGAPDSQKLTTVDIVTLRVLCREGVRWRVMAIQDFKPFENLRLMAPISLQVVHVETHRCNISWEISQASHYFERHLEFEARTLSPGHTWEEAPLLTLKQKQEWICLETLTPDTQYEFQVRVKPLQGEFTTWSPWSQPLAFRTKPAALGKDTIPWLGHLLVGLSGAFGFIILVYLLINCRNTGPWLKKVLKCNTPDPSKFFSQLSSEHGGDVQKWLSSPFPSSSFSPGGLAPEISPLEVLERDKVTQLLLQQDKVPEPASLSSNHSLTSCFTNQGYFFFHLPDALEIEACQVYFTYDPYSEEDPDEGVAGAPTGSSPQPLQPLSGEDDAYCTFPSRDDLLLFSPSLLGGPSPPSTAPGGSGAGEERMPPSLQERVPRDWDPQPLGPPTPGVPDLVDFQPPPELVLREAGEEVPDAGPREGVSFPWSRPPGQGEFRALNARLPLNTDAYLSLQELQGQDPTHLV
T3 sequence (looked up) 2: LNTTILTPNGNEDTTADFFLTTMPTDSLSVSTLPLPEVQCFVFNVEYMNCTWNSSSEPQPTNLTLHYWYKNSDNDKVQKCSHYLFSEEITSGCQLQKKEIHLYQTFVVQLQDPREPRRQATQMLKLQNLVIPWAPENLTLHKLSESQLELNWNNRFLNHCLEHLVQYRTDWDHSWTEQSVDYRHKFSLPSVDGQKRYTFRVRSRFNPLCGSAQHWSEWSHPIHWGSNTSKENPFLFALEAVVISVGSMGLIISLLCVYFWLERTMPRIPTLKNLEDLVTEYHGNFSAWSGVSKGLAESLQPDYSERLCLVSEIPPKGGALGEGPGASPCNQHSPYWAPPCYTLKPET

| Binder | Average EC50, pSTAT5 assay in pan T cells, MMP2 cleaved molecule [nM] | Average EC50, pSTAT5 assay in pan T cells, intact molecule [nM] |
| --- | --- | --- |
| B1 | 1.42 |  |
| B2 | 4.36 |  |
| B3 | 5.31 |  |
| B4 | 6.3 |  |
| B8 |  | 128 |
| B9 | 3.26 |  |

Target: T3, IL-2 receptor βγ complex on pan T cells
Assay: cell-based or functional assay
Remark: another data set of the same source

| Binder | Average EC50, pSTAT5 assay in pan T cells, intact molecule [nM] |
| --- | --- |
| B10 | 66.8 |
| B11 | 56.9 |

Source: patent US20240417436A1 (BRIGHT PEAK THERAPEUTICS, published 2024)
